Measurements taken from publication PMC3896610.
Like-named read-outs stand apart in the source and are kept apart here.

Key:
IgG1-K409R-CD20 (human) [1] = test: analytical cation-exchange chromatography
IgG1-K409R-CD20 (human) [2] = test: analytical cation-exchange chromatography; remark: listed apart in the source

B1: IgG1-F405L-EGFR (antibody, V domains shown)
VH: QVQLVESGGGVVQPGRSLRLSCAASGFTFSTYGMHWVRQAPGKGLEWVAVIWDDGSYKYYGDSVKGRFTISRDNSKNTLYLQMNSLRAEDTAVYYCARDGITMVRGVMKDYFDYWGQGTLVTVSS
VL: AIQLTQSPSSLSASVGDRVTITCRASQDISSALVWYQQKPGKAPKLLIYDASSLESGVPSRFSGSESGTDFTLTISSLQPEDFATYYCQQFNSYPLTFGGGTKVEIK
Q: For B1, which % bsIgG1-EGFRxCD20 by CIEX (IgG1-K409R-CD20 (human) [1]) is on record?
A: Its % bsIgG1-EGFRxCD20 by CIEX is 95%.

Q: And the % bsIgG1-EGFRxCD20 by CIEX (IgG1-K409R-CD20 (human) [2])?
A: Its % bsIgG1-EGFRxCD20 by CIEX is 96.3%.
